The values below are quoted from earlier work in publication PMC11391413.

Like-named read-outs stand apart in the source and are kept apart here.

For data set [1], the target named is SOS1 S8 PRM (Homo sapiens) (UniProt Q07889). As to the kind of experiment: NMR.
In data set [2] the target is SOS1 S10 PRM (Homo sapiens) (UniProt Q07889). In words: NMR.
Data set [3] addresses SOS1 S4 PRM (Homo sapiens). As to the kind of experiment: NMR.
The target in data set [4] is SOS1 S2 (Homo sapiens).
Data set [5] deals with SOS1 S4 (Homo sapiens).
Data set [6] concerns the target SOS1 S1 (Homo sapiens).
For data set [7], the target named is SOS1 S7 PRM (Homo sapiens) (UniProt Q07889). In words: NMR.
Data set [8] addresses SOS1 S4 (Homo sapiens). This is another data set of the same source.
Data set [9] addresses SOS1 S2 (Homo sapiens). The source holds these as a separate data set.

Sequence of GRB2 NSH3 (P62993 1-58): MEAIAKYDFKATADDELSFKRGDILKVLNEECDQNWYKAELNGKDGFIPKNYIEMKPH
Sequence of GRB2 CSH3 (P62993 156-215): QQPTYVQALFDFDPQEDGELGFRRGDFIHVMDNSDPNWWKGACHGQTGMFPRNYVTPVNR

The Kd is the free concentration of one partner at which half of the binding sites on the other are occupied at equilibrium, for simple one-to-one binding. As to GRB2 CSH3 (from UniProt P62993), the Kd was 400 µM in data set [1]; 131 µM in data set [2]; 142 µM in data set [3]; 440 µM in [4]; 142 µM in data set [5].

As to GRB2 NSH3 (from UniProt P62993), the Kd in data set [6] is 730 µM; in data set [1], 208 µM; in data set [2], 71.5 µM; in [3] it was 37 µM; in data set [7], 580 µM; in data set [8], 37 µM. The Kd in data set [9] is 250 µM.
